Experimental findings from article PMC4189953 are described below.

Experiment [1] has as its target CFP-tagged ICln (C-ICln) (human) (UniProt P54105). Kind of experiment: FRET or BRET; acceptor photobleaching FRET (FRETeff), living HEK cells, 37°C, after 10 min exposure to the hypotonic extracellular solution; CFP donor, YFP acceptor. On the technique in general: Bioluminescence resonance energy transfer reports proximity on the nanometre scale.
Experiment [2] shares this target. The experiment is described as follows: FRET or BRET; acceptor photobleaching FRET (FRETeff), living HEK cells 24 h after transfection, 37°C, slightly hypertonic extracellular solution (317 mOsm, pH 7.4); CFP donor, YFP acceptor; whole cell bleached.

Chain of UniProt P54105 (P54105 whole entry): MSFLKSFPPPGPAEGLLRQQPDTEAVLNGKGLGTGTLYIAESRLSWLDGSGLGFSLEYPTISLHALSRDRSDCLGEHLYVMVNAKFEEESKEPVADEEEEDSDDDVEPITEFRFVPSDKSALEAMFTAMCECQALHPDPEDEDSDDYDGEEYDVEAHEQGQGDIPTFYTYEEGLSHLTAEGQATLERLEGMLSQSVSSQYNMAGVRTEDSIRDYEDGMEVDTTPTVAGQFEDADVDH

For “YFP-tagged 4.1R^80 (Y-4.1R^80) (natural protein)”, the FRETeff was determined as 15.1 in experiment [1] and 11.6 in experiment [2].
